In PMC7412812, “The RNA-binding protein SERBP1 functions as a novel oncogenic factor in glioblastoma by bridging cancer metabolism and epigenetic regulation” one finds Kd data, which are given here for 1 molecule.

In the series the target is T1, SERBP1 (human, UniProt Q8NC51 1-408).
T1 sequence: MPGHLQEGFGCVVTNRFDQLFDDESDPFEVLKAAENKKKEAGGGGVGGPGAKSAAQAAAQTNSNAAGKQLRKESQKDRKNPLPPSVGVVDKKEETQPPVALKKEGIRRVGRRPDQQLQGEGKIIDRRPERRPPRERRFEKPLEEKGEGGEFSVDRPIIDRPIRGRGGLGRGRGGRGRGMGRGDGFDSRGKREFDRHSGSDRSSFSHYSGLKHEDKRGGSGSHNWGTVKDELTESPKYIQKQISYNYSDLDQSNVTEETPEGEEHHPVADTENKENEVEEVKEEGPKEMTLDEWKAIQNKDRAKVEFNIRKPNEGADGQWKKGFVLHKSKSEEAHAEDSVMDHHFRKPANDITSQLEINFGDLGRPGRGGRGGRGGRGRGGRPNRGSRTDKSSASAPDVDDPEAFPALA
Nature of the series: fluorescence polarization; 5 nM RNA, 0-1000 nM protein; FP: 10 mM HEPES pH 7.5, 50 mM KCl, room temperature. The settings on record: protein: recombinant; tags: N-terminal His6, proteolytically removed (Methods; Results call it an N-terminus His6 fusion); label: 5'-fluorescein; single strand.

B1: SERBP1 RNA 7-mer (ssRNA)
RNA: GCGCGGG
For orientation: Kd means the concentration at which binding is half-saturated. With B1, the equilibrium dissociation constant (Kd) is around 47 nM.
